Measurements reported in PMC3150801 (Nature, 2011).

Target: GST hLRH-1 ligand binding domain (amino acid residues, 185-541) (human, UniProt O00482 185-541)
Assay: pull-down

Chain of GST hLRH-1 ligand binding domain (amino acid residues, 185-541) (O00482 185-541): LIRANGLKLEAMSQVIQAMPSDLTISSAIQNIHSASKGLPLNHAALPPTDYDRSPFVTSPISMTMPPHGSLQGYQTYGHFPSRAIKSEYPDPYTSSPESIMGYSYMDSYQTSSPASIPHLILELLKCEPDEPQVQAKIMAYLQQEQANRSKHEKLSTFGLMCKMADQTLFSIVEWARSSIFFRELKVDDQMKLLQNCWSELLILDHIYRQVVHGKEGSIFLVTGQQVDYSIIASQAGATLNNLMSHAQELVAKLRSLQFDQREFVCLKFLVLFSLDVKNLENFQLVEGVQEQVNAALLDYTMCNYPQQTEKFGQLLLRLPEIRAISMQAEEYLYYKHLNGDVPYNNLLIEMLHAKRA

B1: Full-length [35S]methionine-labeled SRC-3 (natural protein)
chain: not shown
modifications: [35S]methionine label
  fold increase of binding with DLPC or DUPC over basal: ~3 fold
